Experimental data published in paper PMC8158962, “Modulation of fungal virulence through CRZ1 regulated F-BAR-dependent actin remodeling and endocytosis in chickpea infecting phytopathogen Ascochyta rabiei”.

Target: T1, His-ArCRZ1 (Ascochyta rabiei, UniProt A0A163H1V7 1-755)
T1 sequence: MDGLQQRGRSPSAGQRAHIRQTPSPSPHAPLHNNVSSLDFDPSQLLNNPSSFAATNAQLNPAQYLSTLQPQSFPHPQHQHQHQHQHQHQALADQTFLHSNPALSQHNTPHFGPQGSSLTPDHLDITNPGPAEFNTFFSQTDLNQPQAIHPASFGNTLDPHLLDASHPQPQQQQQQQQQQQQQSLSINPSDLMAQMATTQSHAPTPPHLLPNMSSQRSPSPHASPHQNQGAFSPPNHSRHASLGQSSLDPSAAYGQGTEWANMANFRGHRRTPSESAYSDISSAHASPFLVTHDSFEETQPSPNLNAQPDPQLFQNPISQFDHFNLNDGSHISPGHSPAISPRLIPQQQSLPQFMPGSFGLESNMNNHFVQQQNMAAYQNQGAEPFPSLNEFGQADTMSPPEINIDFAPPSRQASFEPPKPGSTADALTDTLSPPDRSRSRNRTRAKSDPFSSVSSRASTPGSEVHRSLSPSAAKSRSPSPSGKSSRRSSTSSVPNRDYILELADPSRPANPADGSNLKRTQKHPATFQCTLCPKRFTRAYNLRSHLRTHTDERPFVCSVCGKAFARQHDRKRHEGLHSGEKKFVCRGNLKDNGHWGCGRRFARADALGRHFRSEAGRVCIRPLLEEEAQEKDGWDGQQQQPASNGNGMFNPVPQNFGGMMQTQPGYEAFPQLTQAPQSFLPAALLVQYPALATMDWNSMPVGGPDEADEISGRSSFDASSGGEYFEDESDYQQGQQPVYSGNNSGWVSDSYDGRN
Assay: EMSA; 15 mM HEPES pH 7.6, 0.2 mM MgCl2, 35 mM KCl, 1 mM DTT, 1% glycerol, 1 mg poly(dI-dC) (so in the source), 10 ng labelled DNA, 30 uL, 25 min, room temperature; 6% native PAGE
Settings: protein: recombinant; tags: His (pET28a(+)); label: 32P end label; blunt

B1: WT CDRE (GRF/GRR), 58 bp (dsDNA)
DNA 1: CTCCAGCCATCGAGCCCCACCACCAATTGGGCCGCCAGTGAGAGCCCCAAGGCCGTCC
DNA 2: GGACGGCCTTGGGGCTCTCACTGGCGGCCCAATTGGTGGTGGGGCTCGATGGCTGGAG
- binding result: binds
